Drawing on PMC9581999, this text covers bioluminescence of the single-chain molecular strain probe F-R86SG-F (FRB-RLuc86SG-FKBP) in COS-7 cells, 10^-6 M rapamycin for 5 h against vehicle (0.1% DMSO), substrate K5; fold intensity and bioluminescence of the single-chain molecular strain probe F-R86SG-F (FRB-RLuc86SG-FKBP) in COS-7 cells, 10^-6 M rapamycin for 5 h against vehicle (0.1% DMSO), substrate K6; fold intensity for one substance.

The assay deals with FKBP12-rapamycin binding domain of mTOR (FRB).

In turn, “FK506 binding protein (FKBP) (from UniProt P62942 1-108) (natural protein)” returned a bioluminescence of the single-chain molecular strain probe F-R86SG-F (FRB-RLuc86SG-FKBP) in COS-7 cells, 10^-6 M rapamycin for 5 h against vehicle (0.1% DMSO), substrate K5; fold intensity of 1.6 fold and a bioluminescence of the single-chain molecular strain probe F-R86SG-F (FRB-RLuc86SG-FKBP) in COS-7 cells, 10^-6 M rapamycin for 5 h against vehicle (0.1% DMSO), substrate K6; fold intensity of 3.1 fold.
